No end group written: not given here.

Common to all, as to assay: ELISA, biotinylated 12-mer peptide on streptavidin, 2 ug/mL FLAG-tagged VHH, anti-FLAG-HRP
(In an ELISA, binding on a coated surface is turned into a signal by an enzyme label.)

One test has as its target T1, WKPYDAADLDPT (human).
T1 peptide: WKPYDAADLDPT-biotin
As to the method: (§1) To determine whether the binding epitope of the anti-FX VHH polypeptide designated “cmpd #1” are located inside the activation peptide (AP) of human FX (SEQ ID NO:2), an ELISA assay was setup. 41 unique 12-mer peptide fragments spanning the 52 residues of the activation peptide with one amino acid spacing were immobilized in microtiter plate wells followed by incubation with the VHH polypeptide to be tested, and detection of bound ligand was performed by addition of a secondary HRP-labelled antibody.
(§2) The peptides were C-terminally conjugated to biotin and 50 μL of 1 μg/mL peptide solution was used for immobilization in discrete wells of the microtiter plate which was pre-coated with 1 μg/mL streptavidin. Each well was washed with washing buffer (10 mM Tris, 150 mM NaCl, 2.5 mM CaCl₂), 0.05% Tween 20, pH 8.60) followed by addition of 50 μL of 2 μg/mL FLAG-tagged anti-FX VHH polypeptide or IgG antibody to be tested. After 1 hour non-bound VHH polypeptide was washed off using washing buffer.
(§3) Bound anti-FX activation peptide ligand was detected by first binding a HRP-labelled secondary antibody (for FLAG-tagged VHH polypeptide: Anti-FLAG mAb M2-Peroxidase (HRP) (Sigma Aldrich, US) for 1 hour, and then adding 100 μL TMB-1 ELISA substrate (Kem-En-Tec Diagnostics, Denmark).

A further test addresses T2, DSITWKPYDAAD (human).
T2 peptide: DSITWKPYDAAD-biotin
Here is the method: as §1, §2, §3

The target in a further test is T3, PTENPFDLLDFN (human).
T3 peptide: PTENPFDLLDFN-biotin
Here is the method: as §1, §2, §3

Another test deals with T4, LDPTENPFDLLD (human).
T4 peptide: LDPTENPFDLLD-biotin
As to the method:
as §1, §2, §3

For a further test, the target named is T5, TENPFDLLDFNQ (human).
T5 peptide: TENPFDLLDFNQ-biotin
Here is the method: as §1, §2, §3

Another test addresses T6, DAADLDPTENPF (human).
T6 peptide: DAADLDPTENPF-biotin
As to the method: as §1, §2, §3

The next test deals with T7, SITWKPYDAADL (human).
T7 peptide: SITWKPYDAADL-biotin
As to the method:
as §1, §2, §3

Another test concerns the target T8, DPTENPFDLLDF (human).
T8 peptide: DPTENPFDLLDF-biotin
Here is the method:
as §1, §2, §3

A further test concerns the target T9, QATSSSGEAPDS (human).
T9 peptide: QATSSSGEAPDS-biotin
Here is the method:
as §1, §2, §3

Another test has as its target T10, EAPDSITWKPYD (human).
T10 peptide: EAPDSITWKPYD-biotin
Here is the method: as §1, §2, §3

The target in a further test is T11, SGEAPDSITWKP (human).
T11 peptide: SGEAPDSITWKP-biotin
As to the method: as §1, §2, §3

The target in the next test is T12, ITWKPYDAADLD (human).
T12 peptide: ITWKPYDAADLD-biotin
As to the method:
as §1, §2, §3

The target of a further test is T13, VAQATSSSGEAP (human).
T13 peptide: VAQATSSSGEAP-biotin
As to the method:
as §1, §2, §3

Another test has as its target T14, TQPERGDNNLTR (human).
T14 peptide: TQPERGDNNLTR-biotin
As to the method: as §1, §2, §3

The target of another test is T15, YDAADLDPTENP (human).
T15 peptide: YDAADLDPTENP-biotin
As to the method:
as §1, §2, §3

The target in a further test is T16, NPFDLLDFNQTQ (human).
T16 peptide: NPFDLLDFNQTQ-biotin
As to the method:
as §1, §2, §3

Another test concerns the target T17, PDSITWKPYDAA (human).
T17 peptide: PDSITWKPYDAA-biotin
As to the method:
as §1, §2, §3

A further test concerns the target T18, AADLDPTENPFD (human).
T18 peptide: AADLDPTENPFD-biotin
Here is the method: as §1, §2, §3

B1: Cmpd #1 (monovalent anti-FX VHH polypeptide, VHH-1.1) (VHH)
VHH: EVQLVESGGGLVQPGGSLRLSCAASGSIGAFDAMGWYRQAPGKQRELVAGIMVSRGNTNYTDSVKGRFTISRDNAKNTVYLQMNSLKPEDTAVYYCKAVKRPGPGYLEVWGQGTLVTVSS
notes: No protractor
For the molecule B1, the “ELISA signal normalized relative to the background signal” value was 0.89 relative to background with WKPYDAADLDPT; 1.08 relative to background with DSITWKPYDAAD; 4.58 relative to background in the test with PTENPFDLLDFN; 1.11 relative to background in the test with LDPTENPFDLLD; 4.84 relative to background with TENPFDLLDFNQ; 0.88 relative to background with DAADLDPTENPF. Also, the “ELISA signal normalized relative to the background signal” value was 1.08 relative to background in the test with SITWKPYDAADL; 4.16 relative to background with DPTENPFDLLDF; 0.96 relative to background with QATSSSGEAPDS; 0.97 relative to background in the test with EAPDSITWKPYD; 0.88 relative to background with SGEAPDSITWKP; 1.1 relative to background with ITWKPYDAADLD. In addition, the “ELISA signal normalized relative to the background signal” value with VAQATSSSGEAP is 1.02 relative to background; with TQPERGDNNLTR, 1.05 relative to background; in the test with YDAADLDPTENP it was 0.87 relative to background; in the test with NPFDLLDFNQTQ it was 3.13 relative to background; with PDSITWKPYDAA it was 1.05 relative to background; with AADLDPTENPFD it was 0.88 relative to background.

(Values after patent US20240067944A1 (published 2024).)
